These results are taken from patent US20230288399A1 (FNCT BIOTECH, published 2023).

Residue numbers refer to the chain shown, from its start. Names may count otherwise.

Test [1] addresses T1, SRC (UniProt P12931 2-536).
T1 construct: Endogenous protein in colorectal cancer cell lysates or cells; also called p-SRC (phosphorylated form)
The test can be described thus: co-immunoprecipitation in SW-480 and HCT-116 colorectal cancer cells. From the text: As a result of performing immunoprecipitation to confirm the expression correlation between ICAM-1 and SRC in SW-480 and HCT-116 colorectal cancer cells, it was confirmed that ICAM-1 binds to SRC endogenously, as shown in FIG. 3D.

The target in test [2] is T1, SRC. The test can be described thus: immunoprecipitation with ICAM-1 Tyr512 mutants. As to the method: Furthermore, in order to confirm that ICAM-1 binds to SRC by a specific residue, an immunoprecipitation reaction was performed using a mutant with phosphomimetics form that inhibits (Y512A) or activates (Y512D) the Tyr512 phosphorylation residue of ICAM-1.

B1: intracellular adhesion molecule 1 (ICAM-1) (receptor)
chain: QTSVSPSKVILPRGGSVLVTCSTSCDQPKLLGIETPLPKKELLLPGNNRKVYELSNVQEDSQPMCYSNCPDGQSTAKTFLTVYWTPERVELAPLPSWQPVGKNLTLRCQVEGGAPRANLTVVLLRGEKELKREPAVGEPAEVTTTVLVRRDHHGANFSCRTELDLRPQGLELFENTSAPYQLQTFVLPATPPQLVSPRVLEVDTQGTVVCSLDGLFPVSEAQVHLALGDQRLNPTVTYGNDSFSAKASVSVTAEDEGTQRLTCAVILGNQSQETLQTVTIYSFPAPNVILTKPEVSEGTEVTVKCEAHPRAKVTLNGVPAQPLGPRAQLLLKATPEDNGRSFSCSATLEVAGQLIHKNQTRELRVLYGPRLDERDCPGNWTWPENSQQTPMCQAWGNPLPELKCLKDGTFPLPIGESVTVTRDLEGTYLCRARSTQGEVTRKVTVNVLSPRYEIVIITVVAAAVIMGTAGLSTYLYNRQRKIKKYRLQQAQKGTPMKPNTQATPP
notes: The assay used the endogenous protein of SW-480 and HCT-116 cells
As to B1, in the test with SRC [1], the binding result is on record as “binds”.

B2: ICAM-1 Y512D mutant (receptor)
chain: B1 chain with Y485D
In the case of B2, the binding result in the test with SRC [2] is “binds”.
